Experimental data as given in paper PMC10730821.
Each block holds one substance with its values, some of them ahead of it.

Experiments:
Assay in all cases: high-speed atomic force microscopy (HS-AFM); channel held by its C-terminal His-tag on Ni2+-coated mica, reconstituted into a DMPC bilayer, extracellular side imaged; 20 mM Tris pH 7.4, 150 mM NaCl (WT, E32Q/N49K) or 50 mM NaCl (N49K); 5 or 10 frames/s; no membrane potential
[1] = biological target: NavAb channel E32Q/N49K mutant, C-terminal cytoplasmic domain truncated, C-terminal His-tag (Arcobacter butzleri) (UniProt A8EVM5)
[2] = biological target: NavAb channel N49K mutant, C-terminal cytoplasmic domain truncated, C-terminal His-tag (Arcobacter butzleri) (UniProt A8EVM5)
[3] = biological target: NavAb channel, wild type, C-terminal cytoplasmic domain truncated, C-terminal His-tag (Arcobacter butzleri) (UniProt A8EVM5)

Substance: NavAb channel E32Q/N49K mutant, C-terminal cytoplasmic domain truncated, C-terminal His-tag (from UniProt A8EVM5 1-230) (natural protein)
size of the VSD-VSD oligomer between channels [1]: 2
stoichiometry N [1]: 4

Substance: NavAb channel N49K mutant, C-terminal cytoplasmic domain truncated, C-terminal His-tag (from UniProt A8EVM5 1-230) (natural protein)
stoichiometry N [2]: 4

stoichiometry N [3]: 4
Substance: NavAb channel, wild type, C-terminal cytoplasmic domain truncated, C-terminal His-tag (from UniProt A8EVM5 1-230) (natural protein)
